For two molecules, Kd and koff results are on record in PMC11088064 (2024).

By Kd is commonly meant the equilibrium constant for the complex coming apart. Read a high Kd as lower affinity. Broadly, the koff is the rate constant with which the complex falls apart. Read a low koff as a long-lived complex.

The labels stand for the following.
B1: His-tagged mPD-1 (PD1-M5228, ACRO Biosystem) (receptor)
chain: LEVPNGPWRSLTFYPAWLTVSEGANATFTCSLSNWSEDLMLNWNRLSPSNQTEKQAAFCNGLSQPVQDARFQIIQLPNRHDFHMNILDTRRNDSGIYLCGAISLHPKAKIEESPGAELVVTERILETSTRYPSPSPKPEGRFQGM
B2: GNUV201 (antibody, V domains shown)
VH: QVQLVQSGAEVKKPGASVKVSCKASGYTFTGYWMHWVRQAPGQGLEWIGMIHPNSDTTTYNEKFKNRVTMTRDTSISTAYMELSRLRSDDTAVYYCAGTDQAAWFAFWGQGTTVTVSS
VL: DIVMTQTPLSLSVTPGQPASISCRSSQNIVHSQGDTYLEWYLQKPGQSPQLLIYKVSKRFSGVPDRFSGSGSGTDFTLKISRVEAEDVGVYYCFQGSHVPWTFGGGTKVEIK

The target in assay [1] is RMP1-14. In words: SPR; pH 7.4. On the technique in general: SPR reads the build-up and loss of mass on a sensor chip optically.
For assay [2], the target named is RMP1-14. In words: SPR; pH 6.0.
Assay [3] deals with B1. In words: SPR; pH 7.4.
Assay [4] addresses T1, hPD-1 (PD-1-H5221, ACRO Biosystems) (human, UniProt Q15116 25-170). In words: SPR; pH 7.4.
In assay [5] the target is B1. Nature of the assay: SPR; pH 6.0.
Assay [6] deals with T1, hPD-1 (PD-1-H5221, ACRO Biosystems). In words: SPR; pH 6.0.
Assay [7] has as its target B1. Nature of the assay: SPR; pH 7.4.
Assay [8] has as its target T1, hPD-1 (PD-1-H5221, ACRO Biosystems). In words: SPR; pH 7.4. This is another data set of the same source.
For assay [9], the target named is B1. In words: SPR; pH 6.0.

T1 sequence (Q15116 25-170): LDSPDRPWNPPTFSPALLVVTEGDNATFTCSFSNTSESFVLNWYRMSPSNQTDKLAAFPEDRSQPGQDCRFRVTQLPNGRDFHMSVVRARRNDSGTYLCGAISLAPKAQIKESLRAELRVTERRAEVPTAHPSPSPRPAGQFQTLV

Take B1: in the assay with RMP1-14 [1], binding was characterised by a dissociation constant (Kd) of 2.43 nM and the koff worked out at 0.00028 s⁻¹. In the assay with RMP1-14 [2], this molecule registered an equilibrium dissociation constant (Kd) of 2.88 nM and an off-rate constant (koff) of 0.00025 s⁻¹.

In the case of B2, the off-rate (koff) in [3] is 9e-05 s⁻¹; in assay [4], 6e-05 s⁻¹; in [5], 5e-05 s⁻¹; in assay [6], 3e-05 s⁻¹. Also, the Kd is 0.38 nM in assay [7], 0.41 nM in assay [8] and 0.18 nM in assay [9].
